# pKd: −log10 of the molar value.
# System: DcGliZ full-length (Dichotomomyces cejpii FS110)
# Assay: SPR
# Details: SPR: HBS-EP (10 mM HEPES pH 7.4, 150 mM NaCl, 0.005% P20), 22 C; EMSA: Beyotime chemiluminescent kit, 5 uL of 1 uM probe + 2 uL protein (~1 mg/mL in Methods …)
row,Sequence,pKd
1,TTACTTCTTGGTCTACTCCGTATTGTGAATCGAAATGAGATAGAAGTATAGTTCTACTGTACTGGTTTCTATCTGCTTAAAATAAATACAATTGTGCCTTCTATACAGATCAGTATGTAGAATGAACTGATAGACCTCCAGGAGGTTCTTCCTCCGAGCCTGCAACGCCCAAGAGGAGAACTGTGCATACGCCAGGACAGATTTTCGGCCTCCGAAAAGGACTGAGGATAGTATCTGCCATGTTTATATATAACTGAGGGAATAGACCAGGTAGATAACAGCAAAATCAACTAAACATCATC (double strand) [pN (gliN promoter)],6.98
2,GTTTCTATGTCTATATCGGAGGAGTGATCAACGGCGTCCGAAAATTCGGCCCGCGGCTGTCTTAGGGCTGGCCTGCAGGTGTAGGGTTCATTATGAAAGACTGGTAGTATTATGCTGCTATTTAGTCAAAAGCAGAAGAACAGTTTGTCTTTAGACCTTGAATAGATATCTGTCAAGACAAGAGCCAAGAAAGTCCCATCACCATGGCAGACATGACCGAACGACCTTCTGATCTCGTTGTGGACAGGCTGGTTCTCTTCG (double strand) [pG (gliG promoter)],6.80
3,TAGTCTATCACTGAACAGTTGAATGAATTTGTTTCAAGACAGCTAAAGCTCCATTCTAGCCGTACGTACTGGTAGTTCTCCGCATAGAAACATATATCTCTCTGCTTGGTCAAAGTCAGGTATCGCCGACAAGTCTTAATATCTGCAGAGTATTCGGTGACCGAAATAGGGTCGGAATATAAGCCATATATATCACTGTTCTGGAAATCAAGAAAATATAACAGTTGAATACTCACTTTTCTAACATTCCAACAATCAGTTGAGCTCGATCACA (double strand) [pM (gliM promoter)],6.79

# From paper PMC7022936
